This note sets out measurements from the DeepSol protein solubility set.

A short description of the series: soluble on expression in E. coli; label from the status in PepcDB or PDB records.
Consider “SELPRKANRRNSSCSSISSVSESSSPSALDESTLTKILPTDNFRGGRGFASPSPPTSLLSEPLSRMDVLSEKIWDYHNKVSQTDEMLQRKLHLRDMLYTAISPVFPLSGLYVVGSSLNGFGNNSSDMDLCLMITNKDLDQKNDAVVVLNLILSTLQYEKFVESQKLILAKVPILRINFAAPFDDITVDLNANNSVAIRNTHLLCYYSSYDWRVRPLVSVVKEWAKRKGINDANKSSFTSYSLVLMVIHFLQCGPTKVLPNLQQSYPNRFSNKVDVRTLNVTMALEEVADDIDQSLSEKTTLGELLIGFLDYYANEFNYDRDAISIRQGRRVERAALAVRPKIHSNSEGDKETPPPSSSASTSSIHNGGTPGIPMHHSISNPHFWRSQWRCVCIEEPFTNSNTAHSIYDEMVFEAIKKAFREAHGELQHNHDLDKLMECEPIKASTTNTGAAVFAATYEGERPLAQQPNTIACASLRVLNSIPVSSGPGHYHYQQQSNQNLSRPQRPGSNQGYQMNNNRGFNGNNQQQHQNRRSFNNQSSSNPGNGSTGPRSSRSNENVRDSSRQQNSQKGSSGVSVSKENVASTTGVPVDKKQQNSNRKDDGNRTKRSPMVQSPEPAKTKSEKTPMASSNVSQ”, for which the “soluble on expression in E. coli” value was “soluble”.
Under “SESQDIKALQKELEQFAKLLKQKRITLGYTQADVGLTLGVLFGKVFSQTTICRFEALQLSFKNMCKLRPLLQKWVEEADNNENLQEICKAETLVQARKRKRTSIENRVRGNLENLFLQCPKPTLQQISHIAQQLGLEKDVVRVWFCNRRQKGKRSSSDYAQ” stands “soluble”.
With “SETETKTLPLENASILSEGSLQEGHRLWIGNLDPKITEYHLLKLLQKFGKVKQFDFLFHKSGALEGQPRGYCFVNFETKQEAEQAIQCLNGKLALSKKLVVRWAHAQVKRYDHNKNDKILPISLEPSSSTEPAQSNLSVTAKIKAIEAKLKMMAENPDAEYPAAPVYSYFKPPDKKRTTPYSRTAWKSRR”, the “soluble on expression in E. coli” value is given as “soluble”.
On to “SETWSVEQVCSWLVEKNLGELVHRFQEEEVSGAALLALNDRMVQQLVKKIGHQAVLMDLIKKYKQNTQGLKSPENPKKAALVMQTEAARDYRDKESSSPARHGEQMPSFYPAENLDNGLIDQRVLKQRRNVKQILARSKALQWTKSYVLPEFPYDVKCMLAEQKCPDHSMRIRIIEFLQADMTKYLEGSLYPSTQQYNDVVNALLQAHPFLDEDGCGFAGV”, for which the “soluble on expression in E. coli” value was “soluble”.
With “SEVRWCATSDPEQHKCGNMSEAFREAGIQPSLLCVRGTSADHCVQLIAAQEADAITLDGGAIYEAGKEHGLKPVVGEVYDQEVGTSYYAVAVVRRSSHVTIDTLKGVKSCHTGINRTVGWNVPVGYLVESGRLSVMGCDVLKAVSDYFGGSCVPGAGETSYSESLCRLCRGDSSGEGVCDKSPLERYYDYSGAFRCLAEGAGDVAFVKHSTVLENTDGKTLPSWGQALLSQDFELLCRDGSRADVTEWRQCHLARVPAHAVVVRADTDGGLIFRLLNEGQRLFSHEGSSFQMFSSEAYGQKDLLFKDSTSELVPIATQTYEAWLGHEYLHAMKGLLCDPNRLPPYLRWCVLSTPEIQKCGDMAVAFRRQRLKPEIQCVSAKSPQHCMERIQAEQVDAVTLSGEDIYTAGKKYGLVPAAGEHYAPEDSSNSYYVVAVVRRDSSHAFTLDELRGKRSCHAGFGSPAGWDVPVGALIQRGFIRPKDCDVLTAVSEFFNASCVPVNNPKNYPSSLCALCVGDEQGRNKCVGNSQERYYGYRGAFRCLVENAGDVAFVRHTTVFDNTNGHNSEPWAAELRSEDYELLCPNGARAEVSQFAACNLAQIPPHAVMVRPDTNIFTVYGLLDKAQDLFGDDHNKNGFKMFDSSNYHGQDLLFKDATVRAVPVGEKTTYRGWLGLDYVAALEGMSSQQC”, the “soluble on expression in E. coli” value was “soluble”.
For “SFVKDFKPQALGDTNLFKPIKIGNNELLHRAVIPPLTRMRALHPGNIPNRDWAVEYYTQRAQRPGTMIITEGAFISPQAGGYDNAPGVWSEEQMVEWTKIFNAIHEKKSFVWVQLWVLGWAAFPDNLARDGLRYDSASDNVFMDAEQEAKAKKANNPQHSLTKDEIKQYIKEYVQAAKNSIAAGADGVEINSANGYLLNQFLDPHSNTRTDEYGGSIENRARFTLEVVDALVEAIGHEKVGLRLSPYGVFNSMSGGAETGIVAQYAYVAGELEKRAKAGKRLAFVHLVEPRVTNPFLTEGEGEYEGGSNDFVYSIWKGPVIRAGNFALHPEVVREEVKDKRTLIGYGRFFISNPDLVDRLEKGLPLNKYDRDTFYQMSAHGYIDYPTYEEALKLGWDKS”, the “soluble on expression in E. coli” value is listed as “soluble”.
In the case of “SGALWDVPSPAATQKATLSEGVYRIMQRGLFGKTQVGVGIHMEGVFHTMWHVTRGSVICHETGRLEPSWADVRNDMISYGGGWRLGDKWDKEEDVQVLAIEPGKNPKHVQTKPGLFKTLTGEIGAVTLDFKPGTSGSPIINKKGKVIGLYGNGVVTKSGDYVSAITQAERIGEGPDYEVDEDIFRKKRLTIMDLHPGAGKTKRILPSIVREALKRRLRTLILAPTRVVAAEMEEALRGLPIRYQTPAVKSDHTGREIVDLMCHATFTTRLLSSTRVPNYNLIVMDEAHFTDPCSVAARGYISTRVEMGEAAAIFMTATPPGSTDPFPQSNSPIEDIEREIPERSWNTGFDWITDYQGKTVWFVPSIKAGNDIANCLRKSGKRVIQLSRKTFDTEYPKTKLTDWDFVVTTDISEMGANFRAGRVIDPRRCLKPVILTDGPERVILAGPIPVTPASAAQRRGRIGRNPAQEDDQYVFSGDPLKNDEDHAHWTEAKMLLDNIYTPEGIIPTLFGPEREKTQAIDGEFRLRGEQRKTFVELMRRGDLPVWLSYKVASAGISYKDREWCFTGERNNQILEENMEVEIWTREGEKKKLRPKWLDARVYADPMALKDFKEFASGRK”, the “soluble on expression in E. coli” value is “soluble”.
In the case of “SGEVEISARAYGKMCLHASRYPHAAVNGLLLAPATGSGECLCLTDCVPLFHSHLALSVMLEVALNQVDVWGAQAGLVVAGYYHANAVLDDQSPGPLALKIAGRIAEFFPRAVLIMLDNKKLVTRPRVPPVIVLENQGLQWVPKDKNLVMWRDWEESRQMVGALLEGRAHQHLVDFDCHLDDIRQDWTNQRLNTQITQWSGSTDGNA”, the “soluble on expression in E. coli” value is “soluble”.
Under “SGKMVSVINTVDTSHEDMIHDAQMDYYGTRLATCSSDRSVKIFDVRNGGQILIADLRGHEGPVWQVAWAHPMYGNILASCSYDRKVIIWREENGTWEKSHEHAGHDSSVNSVCWAPHDYGLILACGSSDGAISLLTYTGEGQWEVKKINNAHTIGCNAVSWAPAVVPGSLIDHPSGQKPNYIKRFASGGCDNLIKLWKEEEDGQWKEEQKLEAHSDWVRDVAWAPSIGLPTSTIASCSQDGRVFIWTCDDASSNTWSPKLLHKFNDVVWHVSWSITANILAVSGGDNKVTLWKESVDGQWVCISDVNKGQGSVSASVTEGQQNEQ” stands “soluble”.
The value for “SGRLSVSRQNFEVHKHLNRLNKPAVKSIQSPDGDIIDCVHISKQPAFDHPFLKDHKIQMGPSYTPESLFGESKVSEKPKESVNPITQLWHQNGVCSEGTIPVRRTKKEDVLRASSVKRYGKKKHLSVPLPRSADPDLINQSGHQHAIAYVEGGKFYGAKATINVWEPKVQSSNEFSLSQLWILGGSFGQDLNSIEAGWQVSPDLYGDNNTRLFTYWTSDAYQATGCYNLLCSGFIQINSQIAMGASISPVSGFHNPQYDISITIWKDPKEGHWWMQFGDGYVLGYWPSFLFSYLADSASIVEWGGEVVNMEEDGHHTTTQMGSGQFPDEGFTKASYFRNIQVVDSSNNLKEPKGLNTFTEKSNCYDVEVGKNDDWGHYFYYGGPGRNPNCQ” was “soluble”; that for “SGSEPTKVMVAVNASTIKDYPNPSISCKRAFEWTLEKIVRSNTSDFKILLLHVQVVDEDGFDDVDSIYASPEDFRDMRQSNKAKGLHLLEFFVNKCHEIGVGCEAWIKTGDPKDVICQEVKRVRPDFLVVGSRGLGRFQKVFVGTVSAFCVKHAECPVMTIKRNADETPSDPADD” was “soluble”; that for “SGTPPGLQTDCEALLSRFQETDSVRFEDFTELWRNMKFGTIFCGRMRNLEKNMFTKEALALAWRYFLPPYTFQIRVGALYLLYGLYNTQLCQPKQKIRVALKDWDEVLKFQQDLVNAQHFDAAYIFRKLRLDRAFHFTAMPKLLSYRMKKKIHRAEVTEEFKDPSDRVMKLITSDVLEEMLNVHDHYQNMKHVISVDKSKPDKALSLIKDDFFDNIKNIVLEHQQWHKDRKNPSLKSKTNDGEEKMEGNSQETERCERAESLAKIKSKAFSVVIQASKSRRHRQVKLDSSDSDSASGQGQVKATRKKEKKERLKPAGRKMSLRNKGNVQNIHKEDKPLSLSMPVITEEEENESLSGTEFTASKKRRKH” was “soluble”.
With “SHMPASVQLHTAVEMHHWCIPFSVDGQPAPSLRWLFNGSVLNETSFIFTEFLEPAANETVRHGCLRLNQPTHVNNGNYTLLAANPFGQASASIMAAFMDNPFEFNPEDPIPDTNSTSGDPVEKKDE”, the “soluble on expression in E. coli” value is listed as “soluble”.
With “SHPALTQLRALRYSKEIPALDPQLLDWLLLEDSMTKRFEQQGKTVSVTMIREGFVEQNEIPEELPLLPKESRYWLREILLSADGEPWLAARTVVPVSTLSGPELALQKLGKTPLGRYLFTSSTLTRDFIEIGRDAGLWGRRSRLRLSGKPLLLTELFLPASPLY”, the “soluble on expression in E. coli” value is reported as “soluble”.
Consider “SIRTSFIKLPGSDGSRYCDSWRLAAETNNVGTWDLIPSICVDSVAEYLNGDQFLSDYSVIVDYALAFAKSVEISGDGKDVWIFDIDETLLTNIDYYKAHGYGSEPYDDNKFSEWVEQGTAPAFDASLRLYNALKKLGFTIILLTGRDEHQRTSTETNLRDAGYSGWERLLLRGPNDQGKSATNYKSEQRSKLIEEGFKIRGNSGDQWSDLQGFAVADRSFKVPNPMYYIP”, for which the “soluble on expression in E. coli” value is “soluble”.
In the case of “SKDCIIQRYKDGDVNNIYTANRNEEITIEEYKVFVNEACHPYPVILPDRSVLSGDFTSAYADDDESC”, the “soluble on expression in E. coli” value is reported as “soluble”.
As to “SKGYFETNRIQHIIVDEAQNFHTEDGNWCEKAKGITQGGKACPRMFWIFLDYFQTSHLKESGLPDFELQYPKEELTQVVRNGDKIAEFLQQELGKIRDNPPCSIPRASLNIVHEFKWSQSISGTLKIKYLTSEKMVSYVANKCDVFLSKGYSPQDIAVLFSTDREKKAYEHMFLREMRKKRRASQMNDTSVCHSNMFDRIRRFSGLERSIVFGINPIATEQPISHNLLICLASRAMKYLYILYALTPEGQSSTVAC”, the “soluble on expression in E. coli” value is listed as “soluble”.
Under “SKIFSKCELARKLKSMGMDGFHGYSLANWVCMAEYESNFNTQAFNGRNSNGSSDYGIFQLNSKWWCKSNSHSSANACNIMCSKFLDDNIDDDIACAKRVVKDPNGMSAWVAWVKHCKGKDLSKYLASCNL” stands “soluble”.
Under “SKNFNYTISFVGSTSNNKFVSFSNQFYEGPKYYWMSNFPLYPGNPGVLQRIEEGERIGNFYTFQYAGLDDNGGWLIYSKDGEVIPIDKGTDEDKRVVGNGLPKFTMSVTHTFRCKNLDLNLYFRGNLGYQIYDVHDLYYGLQDAAPNTNVLESAYKENRKITTGKNVHSSYFVHNGDFMKLDVATLGYTWNINNKWVEKARFYITGRNLFTISGYHRGLDKDAYCVNGMEPGLPYSKNGYYPSSRQFLFGIQLNF” stands “not soluble”.
For the sequence “SKVKVAVRIRPMNRRETDLHTKCVVDVDANKVILNPVNTNLSKGDARGQPKVFAYDHCFWSMDESVKEKYAGQDIVFKCLGENILQNAFDGYNACIFAYGQTGSGKSYTMMGTADQPGLIPRLCSGLFERTQKEENEEQSFKVEVSYMEIYNEKVRDLLDPKGSRQTLKVREHSVLGPYVDGLSKLAVTSYKDIESLMSEGNKSRTVAATNMNEESSRSHAVFKITLTHTLYDVKSGTSGEKVGKLSLVDLAGSERATKTGAAGDRLKEGSNINKSLTTLGLVISALADQSAGKNKNKFVPYRDSVLTWLLKDSLGGNSKTAMVATVSPAADNYDETLSTLRYADRAKHHHHHH”, the “soluble on expression in E. coli” value is reported as “soluble”.
